How the values were obtained:
[1] = test system: ΔM-N L-selectin-GFP/RFP in THP-1 cells; assay: Phos-tag Western blot of L-selectin serine phosphorylation; format: cell-based, human; conditions: 100 nM PMA, 15 min; phos-tag gel
THP-1 cells = assay: Antibody-mediated clustering (AMC) of L-selectin-GFP/RFP, FLIM/FRET; format: cell-based, human; conditions: DREG56 plus secondary antibody
Text: (A) Schematic representation of the cleavage site, transmembrane domain (TMD), and cytoplasmic tail of human L-selectin. Red underlined region of the cleavage site denotes the amino acids that are deleted in ΔM-N L-selectin. […] Red arrow points to the position of the cut site of the L-selectin cleavage domain. (B) Cells expressing matched levels of L-selectin-GFP/RFP in the following forms: WT, ΔM-N, SSAA, ΔM-N^SSAA, and R357A were subjected to AMC using Alexa Fluor 647-conjugated DREG56 or isotype-matched control, followed by goat anti-mouse secondary antibody (see Materials and Methods for more detail). Cells were plated onto poly-L-lysine-coated coverslips and prepared for FLIM/FRET analysis (see materials and methods). FLIM was used to measure the FRET efficiency between the GFP/RFP donor/acceptor pairs as a direct function of cytoplasmic tail clustering […]. At least 45 individual cells were analyzed over 3 independent clustering assays. (C) Representative images are shown for each cell line. The lifetime of fluorescence (Lftm) is expressed in a pseudocolour scale from red (low lifetime with a very high probability of interaction) to blue (high lifetime with a very low probability of interaction). […] Cells were lysed directly in protein loading buffer (containing the reducing agent, dithiothreitol) and resolved onto standard (lower panel) or phos-tag (upper panel) polyacrylamide gels. Antibodies to GFP and RFP were used to, respectively, probe ΔM-N and ΔM-N^SSAA on Western blots. […] Statistics: One-Way ANOVA Tukey's multiple comparison test. **p ≤ 0.01; ***p ≤ 0.001; ****p ≤ 0.0001.
THP-1 cells were adjusted the night before AMC to a density of 0.5 ×10^6 cells per mL. On the same day, 13 mm diameter glass coverslips (thickness “1”) were placed into the base of a 24 well dish, spotted with 100 μL of poly-L-lysine (PLL) to immobilize according to manufacturer's instruction. On the day of the assay, THP-1 cells were counted and adjusted to a density of 1 ×10^6 per mL in 500 μL containing antibody labeling buffer (RPMI culture medium containing FcR block [Miltenyi Biotec]). Cells were labeled with 2 μg per mL DREG56 for 30 min at 4°C, followed by washing (by centrifugation at 300 g and resuspension) in ice cold culture media to remove excess unbound antibody and then incubated back in ice cold labeling buffer containing secondary antibody conjugated to Alexa Fluor […] (Thermo Fisher) for a further 30 min at 4°C. Cells were then washed twice in ice cold neat RPMI and resuspended to 100 μL of neat ice cold RPMI before 80 μL of the cell suspension was seeded onto 13 mm diameter glass coverslips (thickness = “1”), which were pre-coated with PLL-coated the night before. The seeded cells were placed into a humidified cell culture incubator at 37°C and 5% CO2 for 10 min to drive clustering. Adhered cells were flooded in excess 4% paraformaldehyde and fixed for 15 min at room temperature. Fixed coverslips were washed 3 times in PBS and then treated in 10 mg/mL of Sodium Borohydride dissolved in phosphate buffered saline for 10 min at room temperature (to eliminate autofluorescence and enhance signal to noise ratios). Coverslips were subsequently washed in PBS to remove sodium borohydride and mounted using DAKO mounting medium.
FLIM measurement of FRET was performed with a multiphoton microscope system as described previously ([8], [23]). A Nikon TE2000E inverted microscope, combined with an in-house scanner and Chameleon Ti:Sapphire ultrafast pulsed multiphoton laser (Coherent Inc.), was used for excitation of GFP (at 890 nm). Fluorescence lifetime imaging capability was provided by time-correlated, single-photon counting electronics (SPC 700; Becker & Hickl). A 40 × objective (NA 1.3) was used throughout (CFI60 Plan Fluor; Nikon), and data were acquired at 500 ± 20 nm through a bandpass filter (35–5040; Coherent Inc.). […]

ERM = conditions: biochemically and in cells; cited from earlier work
Text: The cytoplasmic tail of L-s ...

calmodulin = conditions: transmigrating pseudopods; ref previously published (no number given at b28; b24 cites ref 8); cited from earlier work
[2] = test system: THP-1 cells over TNF-α-activated HUVEC; assay: Pseudopod protrusion scoring in TEM under flow; format: cell-based, human
Protocol: (A) The number of protrusions formed over this period was scored as: zero, one, two, or >2. (B) The percentages of cells bearing these protrusions were scored at specific time points: 6 min (blue bars), 15 min (green bars), or 25 min (red bars). Supplementary Videos 2, 3, 4 provide examples of cells producing a range of protrusions as TEM proceeds. Data represent SEM of 3 fields of view per flow experiment, conducted on three separate occasions, and at least 180 cells analyzed per group. Values of the vertical lines indicate the differences in protrusion number (specifically “zero” and “two”) corresponding to each of the cell lines, for which statistical significance is shown in Table 1.
All flow experiments were performed using a 35 mm diameter Glycotech parallel plate flow chamber. Perfusion experiments were performed at 1.5 dyn/cm^2 using a Harvard Apparatus 2000 PHD syringe pump. Perfusion media consisted of: RPMI supplemented with L-glutamine, 10% FCS, 1% penicillin/streptomycin, 50 μM β-mercaptoethanol, and 25 mM HEPES. Human Umbilical Vein Endothelial Cells (HUVEC–Lonza) were seeded onto 35 mm diameter glass coverslips (no. 1 thickness; VWR) that were pre-coated with 10 μg/mL fibronectin (37°C for at least 1 h). Before each perfusion assay, HUVEC were stimulated overnight (16 h) with 10 ng/mL carrier-free recombinant human TNF-α (R&D Systems). Each perfusion assay was performed by injecting a bolus of cells for 6 min, followed by just perfusion media (without cells) for the […]. THP-1 cells were perfused at a density of 0.5 ×10^6 cells per mL. THP-1 cells treated with 10 μM TAPI-0 required a preincubation time of 10 min at 37°C before perfusion over TNF-α-activated HUVEC. Note that 10 μM TAPI-0 was also supplemented in the perfusate. Stills were acquired once every 10 seconds using 10 × objective lens.

CCCCCCCCCCCCCC(=O)O[C@@H]1[C@@H](C)[C@@]2(O)[C@@H](C=C(CO)C[C@]3(O)C(=O)C(C)=C[C@@H]23)[C@@H]2C(C)(C)[C@]12OC(C)=O [PMA, phorbol myristate acetate]
serine phosphorylation of L-selectin [1]: serine phosphorylation was detected only when cells were robustly stimulated with the phorbol ester, PMA

B1: R357A: ERM-binding mutant of L-selectin, arginine 357 mutated to alanine (protein)
chain: WTYHYSEKPMNWQRARRFCRDNYTDLVAIQNKAEIEYLEKTLPFSRSYYWIGIRKIGGIWTWVGTNKSLTEEAENWGDGEPNNKKNKEDCVEIYIKRNKDAGKWNDDACHKLKAALCYTASCQPWSCSGHGECVEIINNYTCNCDVGYYGPQCQFVIQCEPLEAPELGTMDCTHPLGNFSFSSQCAFSCSEGTNLTGIEETTCGPFGNWSSPEPTCQVIQCEPLSAPDLGIMNCSHPLASFSFTSACTFICSEGTELIGKKKTICESSGIWSNPSPICQKLDKSFSMIKEGDYNPLFIPVAVMVTAFSGLAFIIWLARALKKGKKSKRSMNDPY
modifications: left off: eGFP (donor copy) or mCherry (acceptor copy, called RFP), C-terminal, kept
change in FRET efficiency on AMC or versus comparator (in words) (THP-1 cells): lacked any significant increase in FRET efficiency
FRET efficiency after AMC (THP-1 cells; 10 min at 37°C, GFP/RFP pair, at least 45 cells, 3 independent assays): 2.47%
L-selectin/ERM interaction (ERM): block L-selectin/ERM interaction

B2: S367A: L-selectin with Ser^367 mutated to alanine, GFP-tagged, expressed in THP-1 cells (protein, UniProt P14151 39-372, looked up, variant S367A)
L-selectin: WTYHYSEKPMNWQRARRFCRDNYTDLVAIQNKAEIEYLEKTLPFSRSYYWIGIRKIGGIWTWVGTNKSLTEEAENWGDGEPNNKKNKEDCVEIYIKRNKDAGKWNDDACHKLKAALCYTASCQPWSCSGHGECVEIINNYTCNCDVGYYGPQCQFVIQCEPLEAPELGTMDCTHPLGNFSFSSQCAFSCSEGTNLTGIEETTCGPFGNWSSPEPTCQVIQCEPLSAPDLGIMNCSHPLASFSFTSACTFICSEGTELIGKKKTICESSGIWSNPSPICQKLDKSFSMIKEGDYNPLFIPVAVMVTAFSGLAFIIWLARRLKKGKKSKRAMNDPY
modifications: C-terminal GFP tag
interaction of calmodulin with L-selectin (calmodulin): significantly reduced interaction of calmodulin
protrusive activity profile in TEM (in words) ([2]; 6, 15 and 25 min of flow over TNF-α-activated HUVEC): possessed the fewest protrusions over the recorded period, differing significantly from WT and S364A L-selectin-expressing cell lines
cells with 2 protrusions ([2]; 15 min time point, mean of 3 fields of view per flow experiment, three occasions, at least 180 cells per group, significance ** S367A p ≤ 0.01 (Tukey), % printed): 13.7%
cells with 0 protrusions ([2]; 15 min time point, mean of 3 fields of view per flow experiment, three occasions, at least 180 cells per group, significance *** S367A p ≤ 0.001, ** SSAA p ≤ 0.01 (Tukey), % printed): 34.4%

From PMC6774396 (Frontiers in Immunology, 2019)
